Source: publication PMC6765261 (Proceedings of the National Academy of Sciences of the …, 2019)

B1: CCT2 subunit of yeast TRiC/CCT (natural protein, Saccharomyces cerevisiae, UniProt P39076 1-527, looked up)
chain: MSVQIFGDQVTEERAENARLSAFVGAIAVGDLVKSTLGPKGMDKLLQSASSNTCMVTNDGATILKSIPLDNPAAKVLVNISKVQDDEVGDGTTSVTVLSAELLREAEKLIDQSKIHPQTIIEGYRLASAAALDALTKAAVDNSHDKTMFREDLIHIAKTTLSSKILSQDKDHFAELATNAILRLKGSTNLEHIQIIKILGGKLSDSFLDEGFILAKKFGNNQPKRIENAKILIANTTLDTDKVKIFGTKFKVDSTAKLAQLEKAEREKMKNKIAKISKFGINTFINRQLIYDYPEQLFTDLGINSIEHADFEGVERLALVTGGEVVSTFDEPSKCKLGECDVIEEIMLGEQPFLKFSGCKAGEACTIVLRGATDQTLDEAERSLHDALSVLSQTTKETRTVLGGGCAEMVMSKAVDTEAQNIDGKKSLAVEAFARALRQLPTILADNAGFDSSELVSKLRSSIYNGISTSGLDLNNGTIADMRQLGIVESYKLKRAVVSSASEAAEVLLRVDNIIRARPRTANRQHM
B2: CCT6 subunit of yeast TRiC/CCT (natural protein)
chain: not shown

Molecular target: the molecule itself
Experiment: cryo-EM structure

Protein | binding result
B1 | binds
B2 | binds
